Experimental data: paper PMC3973203 (Cell Death & Disease, 2014)

Key:
[1] = molecular target: atypical protein kinase C ι (aPKCι) (Homo sapiens, UniProt P41743)
GST-PAR6 (Par6a, cds) = molecular target: T1, GST-PAR6 (Par6a, cds) (human, UniProt Q9NPB6 1-346); test: pull-down
T1 sequence (looked up): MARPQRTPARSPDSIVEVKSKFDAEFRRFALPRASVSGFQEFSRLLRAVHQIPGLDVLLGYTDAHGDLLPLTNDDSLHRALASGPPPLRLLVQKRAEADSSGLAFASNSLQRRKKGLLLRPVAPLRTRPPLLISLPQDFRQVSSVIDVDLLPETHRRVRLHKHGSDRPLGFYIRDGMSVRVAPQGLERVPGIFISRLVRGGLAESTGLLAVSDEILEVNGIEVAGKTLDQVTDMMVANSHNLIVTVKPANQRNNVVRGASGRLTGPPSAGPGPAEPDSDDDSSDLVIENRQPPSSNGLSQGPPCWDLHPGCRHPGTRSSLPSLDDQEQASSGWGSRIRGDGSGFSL

O=C(O)CC([S][Au])C(=O)O (stereo not drawn) [ATM, aurothiomalate]
IC50 [1]: 20.4 µM

B1: HIS-aPKCι, PB1 domain of human atypical protein kinase C ι (amino acids 1–113) (domain or fragment, UniProt P41743 1-113, looked up)
chain: MPTQRDSSTMSHTVAGGGSGDHSHQVRVKAYYRGDIMITHFEPSISFEGLCNEVRDMCSFDNEQLFTMKWIDEEGDPCTVSSQLELEEAFRLYELNKDSELLIHVFPCVPERP
mean binding ratio at 10 μM ATM (0 μM ATM = 100%) (GST-PAR6 (Par6a, cds)): 63.8% | mean binding ratio at 50 μM ATM (0 μM ATM = 100%) (GST-PAR6 (Par6a, cds)): 32.7%
